The source of these data is the domain aggregation screens of Martell et al. (2025).

The data set is described as follows: soluble fraction after stress (log2 fold change); higher = more stays soluble; pooled small domains, quantitative proteomics. The settings on record: stress: 75 degC.
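Note: 20 min heating vs room temperature control held 20 min.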

Take “HMPDLSAEERNIVEALQKSNDLQVNLIAVKTGMDMGTLSATLFGLEMKGLVKLMAGGTYHLI”: the “soluble fraction (log2)” value is -1.11.
Consider “HMPDLSEDEEKIVSLLRDNNDLNVNIIVMRTQLPSATVTSSLFSLELKGVVRMYAGGMYHLM”, for which the “soluble fraction (log2)” value was -3.73.
Turning to “HMPDLSYVDEVLNRYKGHKGTLITVLQQVQAHKGYLEKEALERVARSMGVPTARIYGVVTFYAQFR”, the “soluble fraction (log2)” value came out at 0.138.
On to “HMPDPVHAAYLRLAVLLTEQAIGPQVTEQQIRDRFALTRRQTSDLMGRLIREGIAEKRAGYGWNINTELTA”, for which the “soluble fraction (log2)” value was -1.16.
“HMPDVAIMNVSVEPEKKVVRLQVKAISLEALLDFSTRLEAIPARVELQNHTPSKELSQKWAVNATLIVIY”: the “soluble fraction (log2)” value was found to be 0.482.
For “HMPDYYAILEVERTADAKTIKAAYRKLALAYHPDRNPGDQAAEERFKQINEAYAVLSDPEKRARYDRYGSV”, the “soluble fraction (log2)” value is -0.131.
Regarding “HMPEFKDMLKFFRMREHLSQSELAEKLGISASTVSMYEVGRRQPDFETEEKIADFFNTDLNTLRG”, the “soluble fraction (log2)” value is -0.693.
With “HMPEGTYLEKLAIENNNLQLIGLSREASQLVQLLQDAPQWRKVNLTGVLQADGAASGRDRFTMTAELQ”, the “soluble fraction (log2)” value was 0.0999.
To “HMPEKNQITHLIRLIDDRDEFVRKRVREQLIKLGEDAIPFLEMAAKTENLEIQRIASEIIQAIIPRQ” belongs -0.745; to “HMPELPPHELLRALMVEHDIKQSELPEVGPQPVVSDVLAGKRALNLRQVAALAARFHVPMEVFT”, -0.161; to “HMPELSITDADIIVAGGRGMGSAENFGLIRELAGLLGAAVGASRVVVDAEWVDQKHLIGQTGK”, -0.0455.
The figure for “HMPELTASDEADLKALVGGDQGFEQMANWARSNLGEEEINRFDAVVDSNNKDAIHMAIQAMQARMNA” is -0.107; for “HMPELTERELEVLLLTARGLPSSEAARLLFITRRTVAAHLTSIYGKLGARNKTEAVLAALKRGIIMLDQIG” it is -3.99; for “HMPESYFEMLQKLLETYALPQEGTIYFSAADLARMPQKFEDVIEQTAQKKGGHLVVSKEPKDMDGGFVLV” it is -1.83.
To “HMPEVAHTIDMEAVNKHWDELPEREQRILVMRFYGNLTQTEIGERLGISQMHVSRLLARALSHLKSRLLD” belongs -3.89.
As to “HMPEVYPFEVAEDDAGKRLDVFLSEEIEEFTRSFIQKLIAGGLASVNRAPARASYRVKPRDLVELQVPE”, the “soluble fraction (log2)” value was -0.598.
To “HMPFNREYWIEQLLKEVGLMGTPYAELDKHEVELDSPTGRASGFKVNAKTYVDQQLLFIENEYNNQPE” belongs -0.533; to “HMPFREGDEVFVELVEPHMYNEDDAVAKLDGYVVAVRGAAGLVGQKVLVRIERVGRSSAEATLVA”, -0.0609; to “HMPGEIKKIPINSISYQDLKQHPYFDAYLAKQVIKYRETKGRIENIEQFREATRAYQSLIEKVTPYLDFE”, -0.302.
In the case of “HMPGGLSAEDVEKMVEKVLTVNGDVVEEIRSGRDPKGKKIKFLAGLVMRDARGQADAAAVSGILERRLKEG”, the “soluble fraction (log2)” value amounted to 0.0256.
For “HMPGLITLEAAKTTALNHAKLTADQVTFVKQKLDRDDGRQVYEIEFYTSDYKEYDYEIDAVSGLILEVDYD”, the “soluble fraction (log2)” value is -0.866.
The figure for “HMPGLPLWAFSTRGSAIHTGASFRDGDGLLFGPESRGLPDWLLEEVGQDRVLRLPMRPGSRSLNLSNAV” is -0.577.
The figure for “HMPGPAEMPGWITARAKKLGGQITPEAARALAAEMGSDTEQASREIEKLLTYVDYRRPVEEEDVALLTA” is 0.16; for “HMPGRKTTFEERLSIIEDLIKHDVNYSWAVDKYHVSYQQVYGWYQKYRKSGNDPQSLRDRRGK” it is -3.65.
On to “HMPGRPSRISDAVKDQIDHDLRKNPRDLGYSQNLWDGKLLSHHLKERYQITLGIRQAQRLFHQLGFRQR”, for which the “soluble fraction (log2)” value was -0.846.
Consider “HMPGVLEVDTGGVAAVAYVDGVEVGRVPGELQIAAGTKTLMLKADRYLDYVQSLEIDGLGKRQLLVATLQS”, for which the “soluble fraction (log2)” value was -0.0797.
In the case of “HMPGVTTQLHRLNGTEETYIIKRGDGVLEIDGEKSELQLGDAIIIPAGASQKISNIGDEDLE”, the “soluble fraction (log2)” value is -0.159.
The figure for “HMPHFFISTSDVNQDIITVSDKENFHHIARVLRSKVGETLLLVDENRTQYKVVIQNIDSKSITTKVVETLK” is -0.925.
“HMPHFGVVLQMDDWKTLRDRLEARDDIDWVMKPNLRFEGQPGEQATLFIRDPSGNALEFKGFADLSQVF”: the “soluble fraction (log2)” value is -0.116.
As to “HMPHSTTDFSVSPDERQIVYSTNLQGRYDLWALDHNQGYPYPLTKKGQMSFFIKHLPGSQMILTGFD”, the “soluble fraction (log2)” value was -0.161.
Take “HMPIDQAKRKKEIIQNFGIRKIYKFSEIFDLKFGRDNIIVTFLIILDMIKEGVVEINENKEEIEFEYK”: the “soluble fraction (log2)” value is -0.152.
As to “HMPIKYTHKGYTINVSRSKMNGTTFVKVVDPKGQVIQQSQDNRIQDVNQLVTTMKQYIDTLKPS”, the “soluble fraction (log2)” value was -0.274.
Take “HMPILRDEVYLSIKEAILTGELAPGERISIGRLLPQIGFSPTPIREALLKLEQEGFVSRLQRGGFIVSR”: the “soluble fraction (log2)” value is -1.91.
As to “HMPIQLLSEKYMDEHWDELDKDEVSLYQNMSIRFLLKHEDDINWKLYSTNPFISIDTIDFFKDKISWVNI”, the “soluble fraction (log2)” value is -2.34.
Take “HMPKAKASARNDTRTRLLTIGTEVLSQKGFASTGVEEILSVAGVPKGAFYYYFESKAAFGLAVIENYE”: the “soluble fraction (log2)” value was found to be 0.259.
Turning to “HMPKAMAIMSEIAGTVHIDDTKKSRHVEVTGVDDNGAPVTKSYLIPFGHRLKVMEGDVLVKGALLT”, the “soluble fraction (log2)” value was -0.0702.
In the case of “HMPKHHIESVIPENFAGERLDKVLAVLWGTFSRAQLTRWIRDGSLLLDGHKVKPNTKVDGSEKIVLQAEVA”, the “soluble fraction (log2)” value is -1.27.
In the case of “HMPKNEHETKAIGNQTGGRVFLFLNTDNINRDYNMYISKQVKFVREISQEYYGKVAVFEDLYGNLWDLIE”, the “soluble fraction (log2)” value turned out to be 0.0316.
On to “HMPKNRTDYVQDVLKSLGRPAHYKEITQIINAMLPKEAQYSAKSIQVVLGSSPLFIRVGTGTYALVE”, for which the “soluble fraction (log2)” value was -1.73.
Turning to “HMPKNVEVPNVVGLSLPMAKLRLTQLGLHIVVRDSVWSETGQPNTILDQDPQPGKKIKPESTVYVKVN”, the “soluble fraction (log2)” value was -1.48.
With “HMPKRYAGPDIIAIYGSDVFFRVGSGDGLMVIPVGRSMDNIEVVSVDAPRSVELMWKDGGPFTVPV”, the “soluble fraction (log2)” value was 0.145.
As to “HMPKSKTPDDAAEEFRTAFSALDMDGKVTVKDMAEYMGVIDKTVYARLKKMGDEFTLDKGVITKKT”, the “soluble fraction (log2)” value was -0.104.
The figure for “HMPKTATIVIDLNYADAKEIVENLQTILAGETKDISVAPHPSANQIIASGDRWEVENISTIIKQLDR” is 0.26; for “HMPKTLTEAAYEDIKQWILEGEITPGSKISLEDTASRLEVSMTPIREALTKLQQEGLVEYIPRAGWRASK” it is -0.0907.
For the sequence “HMPLAQRFGLTVAQARVLDLLAEGRSNRQIGELLGLTEGTVKIHVSAIMKAMGVSNRAEAALMANRKR”, the “soluble fraction (log2)” value was -1.7.
Consider “HMPLDKDTTLDEIYRRFNMEHPADYKGHSLSMGDIVVFRQDGKQTAYYVDEGADYRQVPEFFVK”, for which the “soluble fraction (log2)” value was -0.0344.
On to “HMPLDPFVVDALRDEIINTIKQHEPRVDLQKVQVQPIYTQNRVNISVQYKIVGLPIVEDITFVLQRP”, for which the “soluble fraction (log2)” value worked out at 0.39.
The figure for “HMPLEKGVVILDVTPSSAKVAVDGTSVETTYPLRLSAGLHQLSAEADGYDSITEYFKVETEKTTVTLDLSK” is 0.236; for “HMPLEQAELRLDLKQAILQMDRQTQELLLLRYVDGLSPGEAGKVLELSRFAVYRREKEALRKLRDYFSH” it is -1.93.
For “HMPLLSEWDAALEELWAKLGDVPMDPETERMDAPFLGFPAGTPREDIWHWFDERHSKGVAHLLYG”, the “soluble fraction (log2)” value was -2.46.
